The values below come from publication PMC5789076, “Molecular basis for the specific and multivariant recognitions of RNA substrates by human hnRNP A2/B1”.

Common to all, as to experiment: ITC; ITC: 10 mM HEPES pH 8.0, 50 mM KCl, 1 mM EDTA, 1 mM BME, 25 C (protein into RNA); EMSA: 10 mM HEPES pH 8.0, 50 mM KCl, 1 mM EDTA, 5 mM BME, room temperature 30
In general terms: In ITC the heat of successive injections is recorded.

For one series, the target named is hnRNP A2/B1 RRM1-RRM2 (human, UniProt P22626 12-195). As to conditions: protein: recombinant; tags: N-terminal His6-SUMO removed by Ulp1; single strand.
Sequence of hnRNP A2/B1 RRM1-RRM2 (P22626 12-195): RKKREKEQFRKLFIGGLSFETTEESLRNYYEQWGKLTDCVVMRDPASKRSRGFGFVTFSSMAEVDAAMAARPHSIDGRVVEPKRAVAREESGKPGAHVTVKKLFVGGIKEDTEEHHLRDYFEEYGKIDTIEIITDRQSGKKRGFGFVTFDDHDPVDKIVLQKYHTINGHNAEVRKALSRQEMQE
Series [1] addresses hnRNP A2/B1 RRMs + RGG box (human, UniProt P22626 1-249). As to conditions: protein: recombinant; tags: N-terminal His6-SUMO removed by Ulp1; single strand.
The target in the next series is hnRNP A2/B1 full-length (human, UniProt P22626 1-353). As to conditions: protein: recombinant; tags: prepared with His6(-SUMO) tag or untagged; single strand.
Sequence of hnRNP A2/B1 full-length (P22626 whole entry): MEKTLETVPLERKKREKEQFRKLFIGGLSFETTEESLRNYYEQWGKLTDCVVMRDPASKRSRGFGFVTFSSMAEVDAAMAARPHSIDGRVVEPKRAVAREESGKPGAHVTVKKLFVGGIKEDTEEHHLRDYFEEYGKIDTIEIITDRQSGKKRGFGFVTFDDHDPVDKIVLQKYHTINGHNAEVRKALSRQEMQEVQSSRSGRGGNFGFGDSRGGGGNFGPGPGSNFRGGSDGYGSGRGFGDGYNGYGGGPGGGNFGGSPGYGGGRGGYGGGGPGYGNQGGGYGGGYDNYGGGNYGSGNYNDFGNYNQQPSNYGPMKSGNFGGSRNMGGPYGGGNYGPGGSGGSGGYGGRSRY
For series [2], the target named is hnRNP A2/B1 (12-195) F66A (human, UniProt P22626 12-195, F66A). As to conditions: protein: recombinant; tags: His6-SUMO removed; single strand.
Sequence of hnRNP A2/B1 (12-195) F66A (P22626 12-195 F66A): as the sequence (P22626 12-195) above, with F55A counted along it
Series [3] addresses hnRNP A2/B1 (12-195) Q19A (human, UniProt P22626 12-195, Q19A). As to conditions: protein: recombinant; tags: His6-SUMO removed; single strand.
Series [4] addresses hnRNP A2/B1 (12-195) F115A (human, UniProt P22626 12-195, F115A). As to conditions: protein: recombinant; tags: His6-SUMO removed; single strand.
The target in series [5] is hnRNP A2/B1 (12-195) K113A (human, UniProt P22626 12-195, K113A). As to conditions: protein: recombinant; tags: His6-SUMO removed; single strand.
Sequence of hnRNP A2/B1 (12-195) K113A (P22626 12-195 K113A): as the sequence (P22626 12-195) above, with K102A counted along it
Series [6] has as its target hnRNP A2/B1 (12-195) D49A (human, UniProt P22626 12-195, D49A). As to conditions: protein: recombinant; tags: His6-SUMO removed; single strand.
Series [7] deals with hnRNP A2/B1 (12-195) E183A (human, UniProt P22626 12-195, E183A). As to conditions: protein: recombinant; tags: His6-SUMO removed; single strand.
Sequence of hnRNP A2/B1 (12-195) E183A (P22626 12-195 E183A): as the sequence (P22626 12-195) above, with E172A counted along it
In series [8] the target is hnRNP A2/B1 (12-195) F24A (human, UniProt P22626 12-195, F24A). As to conditions: protein: recombinant; tags: His6-SUMO removed; single strand.
Sequence of hnRNP A2/B1 (12-195) F24A (P22626 12-195 F24A): as the sequence (P22626 12-195) above, with F13A counted along it
Series [9] deals with hnRNP A2/B1 (12-195) F157A (human, UniProt P22626 12-195, F157A). As to conditions: protein: recombinant; tags: His6-SUMO removed; single strand.
Sequence of hnRNP A2/B1 (12-195) F157A (P22626 12-195 F157A): as the sequence (P22626 12-195) above, with F146A counted along it
The target in series [10] is hnRNP A2/B1 (12-195) E92A (human, UniProt P22626 12-195, E92A). As to conditions: protein: recombinant; tags: His6-SUMO removed; single strand.
Sequence of hnRNP A2/B1 (12-195) E92A (P22626 12-195 E92A): as the sequence (P22626 12-195) above, with E81A counted along it
The target in series [11] is hnRNP A2/B1 (12-195) K120A (human, UniProt P22626 12-195, K120A). As to conditions: protein: recombinant; tags: His6-SUMO removed; single strand.
Sequence of hnRNP A2/B1 (12-195) K120A (P22626 12-195 K120A): as the sequence (P22626 12-195) above, with K109A counted along it
Series [12] concerns the target hnRNP A2/B1 (12-195) H108A (human, UniProt P22626 12-195, H108A). As to conditions: protein: recombinant; tags: His6-SUMO removed; single strand.

Sequence of hnRNP A2/B1 RRMs + RGG box (P22626 1-249): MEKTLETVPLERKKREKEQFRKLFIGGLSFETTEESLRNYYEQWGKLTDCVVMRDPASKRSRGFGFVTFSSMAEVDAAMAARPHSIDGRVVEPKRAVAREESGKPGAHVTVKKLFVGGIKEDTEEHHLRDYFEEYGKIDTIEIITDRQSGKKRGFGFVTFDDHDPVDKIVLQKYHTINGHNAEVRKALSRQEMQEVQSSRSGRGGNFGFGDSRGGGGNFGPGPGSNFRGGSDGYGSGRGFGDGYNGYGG
Sequence of hnRNP A2/B1 (12-195) Q19A (P22626 12-195 Q19A): as the sequence (P22626 12-195) above, with Q8A counted along it
Sequence of hnRNP A2/B1 (12-195) F115A (P22626 12-195 F115A): as the sequence (P22626 12-195) above, with F104A counted along it
Sequence of hnRNP A2/B1 (12-195) H108A (P22626 12-195 H108A): as the sequence (P22626 12-195) above, with H97A counted along it
Sequence of hnRNP A2/B1 (12-195) D49A (P22626 12-195 D49A): as the sequence (P22626 12-195) above, with D38A counted along it

B1: U6C (ssRNA)
RNA: AAGGACCAGC
By Kd is commonly meant the free concentration of one partner at which half of the binding sites on the other are occupied at equilibrium, for simple one-to-one binding. Regarding B1, in the series with hnRNP A2/B1 RRM1-RRM2, the dissociation constant (Kd) came to 184 ± 16.3 nM.

B2: G8C (ssRNA)
RNA: AAGGACUACC
In the case of B2, the Kd in the series with hnRNP A2/B1 RRM1-RRM2 worked out at 292 ± 44.2 nM.

B3: U6A (ssRNA)
RNA: AAGGACAAGC
In the case of B3, the Kd with hnRNP A2/B1 RRM1-RRM2 was found to be 204 ± 19.9 nM.

B4: 10mer-m6A (ssRNA)
RNA: AAGGACUAGC
modifications: m6A at position 5
B4: the dissociation constant Kd came to 1320 ± 143 nM in the series with hnRNP A2/B1 RRM1-RRM2, 176 ± 25.3 nM in series [1] and 172 ± 25.6 nM in the series with hnRNP A2/B1 full-length.

B5: A7G (ssRNA)
RNA: AAGGACUGGC
Regarding B5, the Kd in the series with hnRNP A2/B1 RRM1-RRM2 worked out at 108 ± 11.5 nM.

B6: 10mer (ssRNA)
RNA: AAGGACUAGC
Consider B6, for which the Kd turned out to be 763 ± 10.2 nM in series [2]; 440 ± 42 nM in [3]; 781 ± 87.7 nM in series [4]; 813 ± 1.17 nM in [5]; 562 ± 69.4 nM in [6]; 115 ± 11.5 nM in the series with hnRNP A2/B1 RRM1-RRM2. Further, the Kd in series [7] amounted to 290 ± 47.8 nM; in series [8] it was 457 ± 35.5 nM; in [9] it was 535 ± 97.1 nM; in series [1], 26.5 ± 1.8 nM; in series [10], 752 ± 85.5 nM; in series [11], 413 ± 50.5 nM. Besides, the Kd with hnRNP A2/B1 full-length turned out to be 103 ± 8.93 nM; in series [12], 167 ± 19.2 nM.

B7: G8A (ssRNA)
RNA: AAGGACUAAC
For B7, the Kd with hnRNP A2/B1 RRM1-RRM2 was 107 ± 16.2 nM.

B8: G8U (ssRNA)
RNA: AAGGACUAUC
Take B8: the Kd with hnRNP A2/B1 RRM1-RRM2 turned out to be 272 ± 30.7 nM.

B9: G2U (ssRNA)
RNA: AAUGACUAGC
Regarding B9, the equilibrium dissociation constant (Kd) with hnRNP A2/B1 RRM1-RRM2 was found to be 581 ± 58.1 nM.

B10: 8mer (ssRNA)
RNA: AGGACUGC
Turning to B10, the results for the Kd (with hnRNP A2/B1 RRM1-RRM2; in series [1]) were 276 ± 27.5 nM and 465 ± 53.2 nM, respectively.

B11: G3A (ssRNA)
RNA: AAGAACUAGC
For the molecule B11, the dissociation constant Kd with hnRNP A2/B1 RRM1-RRM2 stood at 244 ± 25.3 nM.

B12: A1U (ssRNA)
RNA: AUGGACUAGC
For the molecule B12, in the series with hnRNP A2/B1 RRM1-RRM2, the Kd stood at 532 ± 66.7 nM.

B13: G2A (ssRNA)
RNA: AAAGACUAGC
For the molecule B13, the dissociation constant (Kd) with hnRNP A2/B1 RRM1-RRM2 was found to be 316 ± 37 nM.

B14: 8mer-m6A (ssRNA)
RNA: AGGACUGC
modifications: m6A at position 4
With B14, the Kd stood at 461 ± 47.4 nM with hnRNP A2/B1 RRM1-RRM2 and 505 ± 44.2 nM in [1].

B15: G3C (ssRNA)
RNA: AAGCACUAGC
In the case of B15, in the series with hnRNP A2/B1 RRM1-RRM2, the Kd was found to be 952.4 ± 1.14 nM.

B16: G2C (ssRNA)
RNA: AACGACUAGC
Consider B16, for which the Kd with hnRNP A2/B1 RRM1-RRM2 worked out at 699 ± 88.5 nM.

B17: A1C (ssRNA)
RNA: ACGGACUAGC
On to B17, for which the equilibrium dissociation constant (Kd) with hnRNP A2/B1 RRM1-RRM2 was found to be 662 ± 54.3 nM.
